Substrate in data set [1]: COc1cc(/C=C/C=O)ccc1O
The experiment in a line: purified protein. Type of data set: biochemical, Triticum aestivum. The conditions noted are these: NADPH as co-substrate; GST fusion.

Substrate in data set [2]: COc1cc(/C=C/C=O)cc(OC)c1O
The experiment in a line: purified protein. The settings on record: NADPH as co-substrate; GST fusion. The data set is classed as biochemical, Triticum aestivum.

B1: TaCAD12 (GST-TaCAD12) (Triticum aestivum) (protein)
chain: MAPTATAAEQSQQHTKKAVGLAALDASGHLSPLAITRRSTGDDDVVIKILYCGICHSDLHSIKNDWKNAKYPMIPGHEIAGEVTEVGKNVTKFKAGDRVGVGCMVNSCQSCESCDKGFENHCPGMIFTYNSVDRDGTRTHGGYSSMVVVHERFVVRFPDAMPLDKGAPLLCAGITVYSPMKYHGLNAPGMHLGVLGLGGLGHVAVKFGKAFGMKVTVISSSPGKKQEALERLGADAFVVSKDADEMKATMSTMDGIINTVSANVPMAPLFGLLKPNGKMIMVGLPEKPIEVPPFALVARNKTLAGSCIGGMRDTQEMLDLAAKHGVTADIEVIGAEYVNTAMERLAKADVRYRFVIDIANTLDKAAAATTE
notes: N-terminal GST fusion (pGEX-4T-1), expressed in E. coli BL21, purified; tag kept
For B1, the Km is 28.91 ± 3.67 µM in data set [1] and 34.18 ± 5.56 µM in data set [2].

A word on the Km: it is the substrate concentration at which the rate is half of its maximum.

The values are drawn from article PMC5110560, “A Wheat Cinnamyl Alcohol Dehydrogenase TaCAD12 Contributes to Host Resistance to the Sharp Eyespot Disease” (Frontiers in Plant Science, 2016).
